Publication PMC8939769 (2022)

Molecular target: SARS-CoV-2 spike protein receptor binding domain (RBD) (SARS-CoV-2, UniProt P0DTC2 319-541)
Test: ELISA

B1: AZD8895 (tixagevimab) (antibody, V domains shown)
VH: QMQLVQSGPEVKKPGTSVKVSCKASGFTFMSSAVQWVRQARGQRLEWIGWIVIGSGNTNYAQKFQERVTITRDMSTSTAYMELSSLRSEDTAVYYCAAPYCSSISCNDGFDIWGQGTMVTVSS
VL: not shown
- IC50: 0.0477 µg/mL
